# Experimental data taken from US20250270315A1.
# Residue numbers refer to the chain shown, from its start.
# B1: 071c (antibody, V domains shown)
# VH: QIQLVQSGPELKKPGETVKISCKASGYTFTTYGMSWVKQAPGKGLKWMVWINTYSGVPTYADDFQGRFAFSLETSASTSYLQINNLRNEDTATYFCARDPHYYGTSPAWFAYWGQGTLVTVSA
# VL: DIVMTQSQKFMSTTIGDRVIITCKASQIVGIAVAWYQQKPGQSPKLLIYSASNRFTGVPDRFTGSGSGTDFTLTISNMQSEDLADYFCQQYSTYPFTFGSGTKLEIK
# B2: 042c (antibody, V domains shown)
# VH: QIQLVQSGPELKKPGETVKISCRASGYTFTTYGMSWVKQAPGKGLRWMGWINTYSGVSTCADDFKGRFAFSLETSATTAYLQIHNLTNEDTATYFCARDPHSYGNSPAWFPYWGQGTLVTVSA
# VL: B1 VL with G16R, I20S, I28N, A32S, P40S, F55Y, T93S, F96L, E105A
# B3: 073c (antibody, V domains shown)
# VH: B1 VH with Q65K, R87K, T105S, A111V
# VL: B1 VL with I20S, K24E, F55Y, D85N, T93A, I106V
# B4: 059c (antibody, V domains shown)
# VH: QVQLQQSGPELVKPGASVKMSCKASGYTFSEYVLSWVKQRTGQGLEWIGEIYPGTITTYYNEKFKGKATLTADKSSNTAYIQLTSLTSEDSAVYFCGRFYDYDGGWFAYWGQGTLLTVSA
# VL: ENVLTQSPEKMAVSLGQKVTMTCSASSSVSSSDLHWYQQKSGASPKPLIHGTSNLASGVPARFSGSGSGTSYSLTISSVEAEDAATYYCQQWSGYPWTFGGGTNLEIK
# B5: 025c (antibody, V domains shown)
# VH: EVQLQQSGAELVKPGASVKLSCTASGFNIKDYYMHWVKQRTEQGLEWIGRIDPEDGETKYAPKFQGKATITADTSSNTAYLQLSSLTSEDTAVYYCDRGLAYWGQGTLVTVSA
# VL: QIVLTQSPAIMSASPGEKVTLTCSASSSVSSSYLYWYQQKPGSSPKLWIYSTSNLASGVPARFSGSGSGTSYSLTISSMEAEDAASYFCHQWSSYPYTFGGGTKLEIK
# B6: 015c (antibody, V domains shown)
# VH: EVQLQQSGVEVVQPGASVKLSCTASGFNIEAYYMHWVKQRTEQGLEWIGRIDPEDGESKYAPKFQGKATMTADTSSSTAYLQLSSLTSDDTAVYYCVRGSYEYWGQGTTLTVSS
# VL: B5 VL with A61P, E80Q, H90Y
# B7: hu025.023 (antibody, V domains shown)
# VH: EVQLVQSGAEVKKPGATVKISCKVSGFNIKDYYMHWVQQAPGKGLEWIGRIDPEDAETKYAPKFQGRVTITADTSTNTAYMELSSLRSEDTAVYYCDRGLAYWGQGTLVTVSS
# VL: EIVLTQSPATLSLSPGERATLSCSASSSVSSSYLYWYQQKPGQAPKLWIYSTSNLASGIPARFSGSGSGTDFTLTISSLEPEDFAVYYCHQWSSYPYTFGQGTKLEIK
# B8: hu025.060 (antibody, V domains shown)
# VH: B7 VH with V24A
# VL: B7 VL
# B9: 042 (antibody, V domains shown)
# VH: B2 VH
# VL: B1 VL with G16R, I20S, I28N, A32S, P40S, F55Y, T93S, F96L, E105A
# B10: 071 (antibody, V domains shown)
# VH: B1 VH
# VL: B1 VL
# B11: 073 (antibody, V domains shown)
# VH: B1 VH with Q65K, R87K, T105S, A111V
# VL: B1 VL with I20S, K24E, F55Y, D85N, T93A, I106V
# B12: 059 (antibody, V domains shown)
# VH: B4 VH
# VL: B4 VL
# B13: 005 (antibody, V domains shown)
# VH: EVKLVESGGGLVQPGGSLSLSCAASGFTFTDYYMSWVRQPPGKALEWLGFIKNEANGYTTESSASVKGRFTISRDNSQSILYLQMNALRAEDSATYYCARYDYYGSNYNWYFDAWGTGTTVTVSS
# VL: DIVMTQSQKFMSPSVGDRVSITCKASQNVRTAVAWYQQKPGQSPKVLIHLASKRHTGVPDRFTGSGSGTDFTLTISNVQSEDLADYFCLQHWIHPLTFGAGTKLELK
# B14: 025 (antibody, V domains shown)
# VH: B5 VH
# VL: B5 VL
# B15: 015 (antibody, V domains shown)
# VH: B6 VH
# VL: B5 VL with A61P, E80Q, H90Y
# B16: hu025.021 (antibody, V domains shown)
# VH: B7 VH
# VL: B7 VL with F72Y
# B17: hu025.059 (antibody, V domains shown)
# VH: B7 VH with V24A
# VL: B7 VL with F72Y
# B18: 005c (antibody, V domains shown)
# VH: B13 VH
# VL: B13 VL
# B19: hu025.033 (antibody, V domains shown)
# VH: B7 VH with N77D
# VL: B7 VL with F72Y
# Biological target: cyno SIRPα stably expressed on CHOK1 cells (cyno)
# Assay: FACS, CHOK1-Cyno SIRPα cells
EC50 [nM],TOP MFI [MFI],Binder
2.64,32300,B1
2.95,32400,B2
1.76,30700,B3
17.2,17400,B4
0.69,30800,B5
0.69,29700,B6

# Biological target: human SIRPα v2 expressed on cells (CHOK1 stable line KYinno KC-1720) (human) (UniProt P78324)
# Assay: FACS, CHOK1 cells stably expressing human SIRPα v2
row,EC50 (read off the curve) [nM],Binder
1,1,B5

# Biological target: human SIRPα v2 expressed on cells (CHOK1 stable line KYinno KC-1720) (human) (UniProt P78324)
# Assay: competitive FACS, mFc-CD47 ECD on CHOK1-human SIRPα v2 cells
IC50 [nM],TOP blocking (%),Binder
0.75,100,B7
0.77,99.8,B8
0.63,99.7,B5

# Biological target: Human SIRPα v2 (antigen of the Octet and Biacore affinity measurements) (human) (UniProt P78324)
# Assay: BLI (Octet), 1:1 binding model
Kd [nM],koff [s⁻¹],kon [M⁻¹ s⁻¹],Binder
6.14,0.00378,616000,B2
2.67,0.00293,1.1e+06,B5
0.937,0.00117,1.24e+06,B6

# Biological target: cyno SIRPα stably expressed on CHOK1 cells (cyno)
# Assay: FACS, CHOK1-cyno SIRPα cells
row,MFI at 10 nM [MFI],Binder
1,6850,B9
2,8370,B10
3,7850,B11
4,5840,B12
5,5970,B13
6,8560,B14
7,10800,B15

# Biological target: Human SIRPα v2 (antigen of the Octet and Biacore affinity measurements) (human) (UniProt P78324)
# Assay: SPR (Biacore), 1:1 binding model
Kd [nM],koff [s⁻¹],kon [M⁻¹ s⁻¹],Binder
3.39,0.0056,1.65e+06,B16
2.78,0.00492,1.77e+06,B7
2.76,0.00392,1.42e+06,B17
2.34,0.00344,1.47e+06,B8
1.69,0.00254,1.51e+06,B5

# Biological target: human SIRPα v2 expressed on cells (CHOK1 stable line KYinno KC-1720) (human) (UniProt P78324)
# Assay: FACS, CHOK1-hSIRPα v2 cells
EC50 [nM],TOP MFI [MFI],Binder
3.31,46700,B1
4.21,54800,B2
2.12,47300,B3
12,19600,B4
5.47,53300,B18
1.34,51600,B5
1.58,50100,B6

# Biological target: human SIRPα v2 expressed on cells (CHOK1 stable line KYinno KC-1720) (human) (UniProt P78324)
# Assay: FACS, CHOK1-hSIRPα v2 cells
# Remark: another data set of the same source
EC50 [nM],TOP MFI [MFI],Binder
0.87,46400,B16
0.81,45800,B7
0.75,47300,B17
0.62,39800,B19
0.8,48800,B8
0.99,53000,B5
